Patent US20090118185A1 (UNIVERSITY OF ROCHESTER, published 2009)
Substitutions are numbered along the chain they refer to. Each block holds one molecule with its values, some of them ahead of it.

Legend:
[1] = tested on: 562(P4-P2)336 factor VIII mutant (procofactor)
[2] = tested on: 562(P4-P3′)336 factor VIII mutant (procofactor)
[3] = tested on: 336(P1′-P3′)562 factor VIII mutant (procofactor)
[4] = tested on: 336(P4-P3′)562 factor VIII mutant (procofactor)
[5] = tested on: 336(P4-P2)562 factor VIII mutant (procofactor)
[6] = target: T1, human activated protein C (human, UniProt P04070 43-197; P04070 212-461); test: cell-based or functional assay
T1 sequence (P04070 43-197, chain 1 of 2): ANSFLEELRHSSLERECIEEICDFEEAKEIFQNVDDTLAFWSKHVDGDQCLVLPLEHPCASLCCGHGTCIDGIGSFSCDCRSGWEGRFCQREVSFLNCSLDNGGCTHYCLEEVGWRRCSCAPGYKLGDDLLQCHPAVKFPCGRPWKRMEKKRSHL
T1 sequence (P04070 212-461, chain 2 of 2): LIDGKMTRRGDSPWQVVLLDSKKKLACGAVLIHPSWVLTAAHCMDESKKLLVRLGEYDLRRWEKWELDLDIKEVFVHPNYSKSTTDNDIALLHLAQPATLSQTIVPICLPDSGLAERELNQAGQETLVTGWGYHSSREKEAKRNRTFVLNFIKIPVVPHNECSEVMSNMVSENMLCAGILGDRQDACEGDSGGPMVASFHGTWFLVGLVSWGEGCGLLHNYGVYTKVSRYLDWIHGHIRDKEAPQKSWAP

[7] = target: T1, human activated protein C; test: cell-based or functional assay; remark: listed apart in the source
[8] = target: T1, human activated protein C; test: competitive inhibition of APC-catalysed cleavage of WT factor VIIIa A1 subunit by the mutant (0-200 nM); Western blot densitometry, fit to competitive inhibition model with Km 102 nM
Method: Aliquots were taken at various time points (0-20 min) and subjected to SDS-PAGE. […] The amount of the A1336 (nM) generated over time was determined based on the amount of WT A1 substrate, calculated by subtracting the amount of the mutant A1 from the total amount of A1 subunit.
Factor VIII (130 nM) was activated by addition of 10-20 nM thrombin in 20 mM HEPES pH 7.2, 100 mM NaCl, 5 mM CaCl₂, 0.01 % Tween 20, and 100 μg/ml bovine serum albumin (Buffer A) and reactions were run at 37° C. Thrombin was inhibited after 2 min by the addition of 10-20 U/ml hirudin, and the resultant factor VIIIa was reacted with APC (2 or 40 nM) in the presence of 100 μM phospholipid vesicles. Aliquots were removed at the indicated times to assess residual factor VIIIa activity by factor Xa generation assay and proteolysis of subunits by Western blotting.

[9] = target: T1, human activated protein C; test: Ki from competitive inhibition of APC cleavage against the literature Km (102 nM) of WT factor VIIIa for APC
Method: The amount of the A1336 (nM) generated over time was determined based on the amount of WT A1 substrate, calculated by subtracting the amount of the mutant A1 from the total amount of A1 subunit.
The rationale for this approach was that if proteinase binding to the mutant were unaffected, then it would efficiently compete with the WT substrate. Furthermore, since the mutant remains essentially uncleaved at the A1 site during a truncated time course, it would serve as an inhibitor of detected cleavage of the WT substrate.

Molecule: α-thrombin
rates of cleavage of factor VIII and the generation of factor VIIIa subunits [1]: indistinguishable from that for WT factor VIII
rates of cleavage of factor VIII and the generation of factor VIIIa subunits [2]: indistinguishable from that for WT factor VIII
rates of cleavage of factor VIII and the generation of factor VIIIa subunits [3]: indistinguishable from that for WT factor VIII
rates of cleavage of factor VIII and the generation of factor VIIIa subunits [4]: indistinguishable from that for WT factor VIII
rates of cleavage of factor VIII and the generation of factor VIIIa subunits [5]: indistinguishable from that for WT factor VIII

B1: WT factor VIIIa (B-domainless recombinant human factor VIII activated by thrombin) (other)
chain 1: ATRRYYLGAVELSWDYMQSDLGELPVDARFPPRVPKSFPFNTSVVYKKTLFVEFTVHLFNIAKPRPPWMGLLGPTIQAEVYDTVVITLKNMASHPVSLHAVGVSYWKASEGAEYDDQTSQREKEDDKVFPGGSHTYVWQVLKENGPMASDPLCLTYSYLSHVDLVKDLNSGLIGALLVCREGSLAKEKTQTLHKFILLFAVFDEGKSWHSETKNSLMQDRDAASARAWPKMHTVNGYVNRSLPGLIGCHRKSVYWHVIGMGTTPEVHSIFLEGHTFLVRNHRQASLEISPITFLTAQTLLMDLGQFLLFCHISSHQHDGMEAYVKVDSCPEEPQLRMKNNEEAEDYDDDLTDSEMDVVRFDDDNSPSFIQIR
chain 2: SVAKKHPKTWVHYIAAEEEDWDYAPLVLAPDDRSYKSQYLNNGPQRIGRKYKKVRFMAYTDETFKTREAIQHESGILGPLLYGEVGDTLLIIFKNQASRPYNIYPHGITDVRPLYSRRLPKGVKHLKDFPILPGEIFKYKWTVTVEDGPTKSDPRCLTRYYSSFVNMERDLASGLIGPLLICYKESVDQRGNQIMSDKRNVILFSVFDENRSWYLTENIQRFLPNPAGVQLEDPEFQASNIMHSINGYVFDSLQLSVCLHEVAYWYILSIGAQTDFLSVFFSGYTFKHKMVYEDTLTLFPFSGETVFMSMENPGLWILGCHNSDFRNRGMTALLKVSSCDKNTGDYYEDSYEDISAYLLSKNNAIEPR
chain 3: SFQKKTRHYFIAAVERLWDYGMSSSPHVLRNRAQSGSVPQFKKVVFQEFTDGSFTQPLYRGELNEHLGLLGPYIRAEVEDNIMVTFRNQASRPYSFYSSLISYEEDQRQGAEPRKNFVKPNETKTYFWKVQHHMAPTKDEFDCKAWAYFSDVDLEKDVHSGLIGPLLVCHTNTLNPAHGRQVTVQEFALFFTIFDETKSWYFTENMERNCRAPCNIQMEDPTFKENYRFHAINGYIMDTLPGLVMAQDQRIRWYLLSMGSNENIHSIHFSGHVFTVRKKEEYKMALYNLYPGVFETVEMLPSKAGIWRVECLIGEHLHAGMSTLFLVYSNKCQTPLGMASGHIRDFQITASGQYGQWAPKLARLHYSGSINAWSTKEPFSWIKVDLLAPMIIHGIKTQGARQKFSSLYISQFIIMYSLDGKKWQTYRGNSTGTLMVFFGNVDSSGIKHNIFNPPIIARYIRLHPTHYSIRSTLRMELMGCDLNSCSMPLGMESKAISDAQITASSYFTNMFATWSPSKARLHLQGRSNAWRPQVNNPKEWLQVDFQKTMKVTGVTTQGVKSLLTSMYVKEFLISSSQDGHQWTLFFQNGKVKVFQGNQDSFTPVVNSLDPPLLTRYLRIHPQSWVHQIALRMEVLGCEAQDLY
Inactivation (nM FVIIIa/min/nM APC) [6]: 5.4 nM FVIIIa/min/nM APC

B5: 562(P4-P3′)336 factor VIII mutant (procofactor) (other)
chain 1: ATRRYYLGAVELSWDYMQSDLGELPVDARFPPRVPKSFPFNTSVVYKKTLFVEFTVHLFNIAKPRPPWMGLLGPTIQAEVYDTVVITLKNMASHPVSLHAVGVSYWKASEGAEYDDQTSQREKEDDKVFPGGSHTYVWQVLKENGPMASDPLCLTYSYLSHVDLVKDLNSGLIGALLVCREGSLAKEKTQTLHKFILLFAVFDEGKSWHSETKNSLMQDRDAASARAWPKMHTVNGYVNRSLPGLIGCHRKSVYWHVIGMGTTPEVHSIFLEGHTFLVRNHRQASLEISPITFLTAQTLLMDLGQFLLFCHISSHQHDGMEAYVKVDSCPEEPQLRMKNNEEAEDYDDDLTDSEMDVVRFDDDNSPSFIQIRSVAKKHPKTWVHYIAAEEEDWDYAPLVLAPDDRSYKSQYLNNGPQRIGRKYKKVRFMAYTDETFKTREAIQHESGILGPLLYGEVGDTLLIIFKNQASRPYNIYPHGITDVRPLYSRRLPKGVKHLKDFPILPGEIFKYKWTVTVEDGPTKSDPRCLTRYYSSFVNMERDLASGLIGPLLICYKESPQLRMKNIMSDKRNVILFSVFDENRSWYLTENIQRFLPNPAGVQLEDPEFQASNIMHSINGYVFDSLQLSVCLHEVAYWYILSIGAQTDFLSVFFSGYTFKHKMVYEDTLTLFPFSGETVFMSMENPGLWILGCHNSDFRNRGMTALLKVSSCDKNTGDYYEDSYEDISAYLLSKNNAIEPR
chain 2: B1 chain 3
fold increase of rate of generation of the A2c fragment compared with WT factor VIII [7]: 27 fold

Second part, the molecule after the results:

Inactivation (nM FVIIIa/min/nM APC) [6]: 0.5 nM FVIIIa/min/nM APC
fold reduction of inactivation rate compared to WT factor VIIIa [7]: 6 to 11 fold
B2: 336(P4-P2)562 factor VIIIa mutant (other)
chain 1: B1 chain 1 with P333V, Q334D, L335Q
chain 2: B1 chain 2
chain 3: B1 chain 3

fold increase of rate of generation of the A2c fragment compared with WT factor VIII [7]: 6 fold
B3: 562(P4-P2)336 factor VIII mutant (procofactor) (other)
chain 1: B5 chain 1 with M563G, K564N, N565Q
chain 2: B1 chain 3

Inactivation (nM FVIIIa/min/nM APC) [6]: 0.9 nM FVIIIa/min/nM APC
fold reduction of inactivation rate compared to WT factor VIIIa [7]: 6 to 11 fold
B4: 336(P1′-P3′)562 factor VIIIa mutant (other)
chain 1: B1 chain 1 with M337G, K338N, N339Q
chain 2: B1 chain 2
chain 3: B1 chain 3

Inactivation (nM FVIIIa/min/nM APC) [6]: 0.8 nM FVIIIa/min/nM APC
Ki [8]: 36 nM
fold Ki less than the Km for WT substrate [9]: ~3 fold
B6: 336(P4-P3′)562 factor VIIIa mutant (other)
chain 1: B1 chain 1 with P333V, Q334D, L335Q, M337G, K338N, N339Q
chain 2: B1 chain 2
chain 3: B1 chain 3
notes: residues 333-339 replaced by residues 559-565; also called fully substituted P4-P3′ mutant
